US20140304853

Experiments:
Assay in all cases: cell_activity
ZFN 34480 (synthetic) = conditions: pair 34480/34481, A-genome; B 11946, D 11790; wheat protoplasts
ZFN 34457 (synthetic) = conditions: pair 34456/34457, A-genome; B 1716, D 10399; wheat protoplasts
ZFN 34472 (synthetic) = conditions: pair 34472/34473, A-genome; B 100300, D 87770; wheat protoplasts
ZFN 29730 (synthetic) = conditions: pair 29732/29730, D-genome, donor pDAS000152 10:1, SEC protoplasts; A 6717, B 6306
ZFN 34474 (synthetic) = conditions: pair 34474/34475, A-genome; B 251142, D 202711; wheat protoplasts
ZFN 34483 (synthetic) = conditions: pair 34482/34483, A-genome; B 33888, D 28719; wheat protoplasts
ZFN 34481 (synthetic) = conditions: pair 34480/34481, A-genome; B 11946, D 11790; wheat protoplasts
ZFN 34477 (synthetic) = conditions: pair 34476/34477, A-genome; B 56001, D 44459; wheat protoplasts
ZFN 34482 (synthetic) = conditions: pair 34482/34483, A-genome; B 33888, D 28719; wheat protoplasts
ZFN 34471 (synthetic) = conditions: pair 34470/34471, A-genome; B 156139, D 134694; wheat protoplasts
ZFN 34456 (synthetic) = conditions: pair 34456/34457, A-genome; B 1716, D 10399; wheat protoplasts
ZFN 29732 (synthetic) = conditions: pair 29732/29730, D-genome, donor pDAS000152 10:1, SEC protoplasts; A 6717, B 6306
ZFN 34476 (synthetic) = conditions: pair 34476/34477, A-genome; B 56001, D 44459; wheat protoplasts
ZFN 34473 (synthetic) = conditions: pair 34472/34473, A-genome; B 100300, D 87770; wheat protoplasts
ZFN 34470 (synthetic) = conditions: pair 34470/34471, A-genome; B 156139, D 134694; wheat protoplasts
ZFN 34478 (synthetic) = conditions: pair 34478/34479, A-genome; B 2731, D 3069; wheat protoplasts
ZFN 34475 (synthetic) = conditions: pair 34474/34475, A-genome; B 251142, D 202711; wheat protoplasts
ZFN 34479 (synthetic) = conditions: pair 34478/34479, A-genome; B 2731, D 3069; wheat protoplasts

Q: How did the activity (NHEJ events per million reads) (ZFN 34480 (synthetic)) turn out when “ACCATGGGGATGGAGTCGAGGAGNGCGT (double strand) [34480 site]” was run?
A: The activity (NHEJ events per million reads) was 11800.

Q: How did the activity (NHEJ events per million reads) (ZFN 34457 (synthetic)) turn out when “ACCTCCCCCGCCGTCGCATTCTCNGGCG (double strand) [34457 site]” was run?
A: Its activity (NHEJ events per million reads) is 12600.

Q: “ACGCCGACGCGGCCGGACGCGCGGGCGT (double strand) [34472 site]” was tested. Which activity (NHEJ events per million reads) (ZFN 34472 (synthetic)) did it give?
A: The activity (NHEJ events per million reads) was 120000.

Q: How did the activity (ppm NHEJ editing) (ZFN 29730 (synthetic)) turn out when “AGGCAGCACGTGCTCCTGATGCGGGACT (double strand) [29730 site]” was run?
A: Its activity (ppm NHEJ editing) is 7910.

Q: For “CAGACGCCGACGCGGCCGGACGCGCGGG (double strand) [34474 site]”, which activity (NHEJ events per million reads) (ZFN 34474 (synthetic)) is on record?
A: The activity (NHEJ events per million reads) was 248000.

Q: With “CATCACGGGCCAGGTCCCCCGCCGCATG (double strand) [34483 site]” as the sequence, how does the activity (NHEJ events per million reads) (ZFN 34483 (synthetic)) read?
A: Its activity (NHEJ events per million reads) is 28700.

Q: For “CCATCACGGGCCAGGTCCCCCGCCGCAT (double strand) [34481 site]”, which activity (NHEJ events per million reads) (ZFN 34481 (synthetic)) is on record?
A: Its activity (NHEJ events per million reads) is 11800.

Q: “CCTCCGGCCCGGGGGCCACCAACCTCGT (double strand) [34477 site]” was tested. Which activity (NHEJ events per million reads) (ZFN 34477 (synthetic)) did it give?
A: Its activity (NHEJ events per million reads) is 48300.

Q: With “CGACCATGGGGATGGAGTCGAGGAGNGC (double strand) [34482 site]” as the sequence, how does the activity (NHEJ events per million reads) (ZFN 34482 (synthetic)) read?
A: Its activity (NHEJ events per million reads) is 28700.

Q: For “CGTCGGCGTCTGCGTCGCCACCTCCGGC (double strand) [34471 site]”, which activity (NHEJ events per million reads) (ZFN 34471 (synthetic)) is on record?
A: The activity (NHEJ events per million reads) was 178000.

Q: “CNGCGGCCATGGCGGCGGCGAGGGTTTG (double strand) [34456 site]” was tested. Which activity (NHEJ events per million reads) (ZFN 34456 (synthetic)) did it give?
A: Its activity (NHEJ events per million reads) is 12600.

Q: “GATCCCAAGCGGTGGTGCTTTCAAGGAC (double strand) [29732 site]” was tested. Which activity (ppm NHEJ editing) (ZFN 29732 (synthetic)) did it give?
A: Its activity (ppm NHEJ editing) is 7910.

Q: Which activity (NHEJ events per million reads) (ZFN 34476 (synthetic)) does the source give for “GCGACGCAGACGCCGACGCGGCCGGACG (double strand) [34476 site]” here?
A: Its activity (NHEJ events per million reads) is 48300.

Q: How did the activity (NHEJ events per million reads) (ZFN 34473 (synthetic)) turn out when “GCGTCGCCACCTCCGGCCCGGGGGCCAC (double strand) [34473 site]” was run?
A: The activity (NHEJ events per million reads) was 120000.

Q: “GGCCGGACGCGCGGGCGTANCCGGACGC (double strand) [34470 site]” was tested. Which activity (NHEJ events per million reads) (ZFN 34470 (synthetic)) did it give?
A: Its activity (NHEJ events per million reads) is 178000.

Q: With “GGGATGGAGTCGAGGAGNGCGTCNGCGA (double strand) [34478 site]” as the sequence, how does the activity (NHEJ events per million reads) (ZFN 34478 (synthetic)) read?
A: The activity (NHEJ events per million reads) was 3070.

Q: With “GTCGCCACCTCCGGCCCGGGGGCCACCA (double strand) [34475 site]” as the sequence, how does the activity (NHEJ events per million reads) (ZFN 34475 (synthetic)) read?
A: The activity (NHEJ events per million reads) was 248000.

Q: “TGGTCGCCATCACGGGCCAGGTCCCCCG (double strand) [34479 site]” was tested. Which activity (NHEJ events per million reads) (ZFN 34479 (synthetic)) did it give?
A: Its activity (NHEJ events per million reads) is 3070.
